Data on 167 variants can be found in the RNAGym collection of RNA variant scans (doi:10.7554/elife.80360).

The chains are these.
B1: CPEB3 Ribozyme (parent)
chain: GGGGGCCACAGCAGAAGCGUUCACGUCGCGGCCCCUGUCAGAUUCUGGUGAAUCUGCGAAUUCUGCUGU

In this data set the parent is B1. Kind of data set: self-cleavage, relative activity (ratio to wild type); higher = more cleavage; co-transcriptional.
Consider G48A G58C, for which the self-cleavage stood at 0.98.
For G48A G58U the value was 0.987; for G47C G50A, 0.965; for G48A G56U, 0.972.
Regarding G47C G56A, the self-cleavage is 1.
For G47A A51C the value was 0.983; for G48A U62A, 0.973; for U46C G65U, 0.629.
For G47C C66U the value was 1; for U46G G58C, 0.936.
With U46G G58A, the self-cleavage worked out at 0.957.
In the case of G47A U64G, the self-cleavage was 0.959.
For G47A U69C the value was 1.06; for G47A U61A, 0.941.
The figure for G47A C63G is 0.922.
As to G47A C63U, the self-cleavage amounted to 1.02.
For G47C A51U, the self-cleavage stood at 1.02.
Consider G47C A51G, for which the self-cleavage turned out to be 1.
Consider G47C C54A, for which the self-cleavage is 0.949.
As to G47U G48A, the self-cleavage stood at 1.03.
With G47U G48U, the self-cleavage turned out to be 1.01.
For G47A C54U the value was 0.972.
Take G47A U67A: the self-cleavage is 0.969.
Consider U46A U64C, for which the self-cleavage turned out to be 0.98.
As for G48A C57A, the self-cleavage came out at 0.329.
G47C U64C: the self-cleavage was 0.956.
On to G48C A59U, for which the self-cleavage was found to be 0.861.
Consider G48C U64G, for which the self-cleavage was 0.974.
For G48C U64A the value was 0.864.
For G48A U53A, the self-cleavage amounted to 1.03.
Consider G48A U53G, for which the self-cleavage worked out at 0.987.
As for G48A U53C, the self-cleavage is 0.958.
The figure for G48C G58U is 0.969.
On to G48C A51U, for which the self-cleavage worked out at 0.976.
G48C A51C: the self-cleavage was 1.02.
U46A U61A: the self-cleavage is 0.982.
For G48C C63G, the self-cleavage turned out to be 0.829.
Take U46C G68U: the self-cleavage amounted to 1.02.
Turning to G47A U62G, the self-cleavage is 0.959.
For U46G G48U, the self-cleavage came out at 1.01.
With U46G G48A, the self-cleavage came out at 1.01.
Turning to U46G G48C, the self-cleavage was 0.994.
For G48C U69A, the self-cleavage turned out to be 1.01.
As to G48C U69G, the self-cleavage is 1.05.
For the variant U46A U67A, the self-cleavage came to 0.972.
In the case of G47U C54G, the self-cleavage is 0.975.
Take G47U G65U: the self-cleavage was found to be 0.946.
For the variant G47U G65A, the self-cleavage was 0.953.
As for G47C C57G, the self-cleavage was found to be 0.299.
Consider U46C U53A, for which the self-cleavage stood at 0.933.
For the variant U46C U53C, the self-cleavage is 0.878.
In the case of G47C U49A, the self-cleavage turned out to be 1.
For G47U G50U the value was 1.04.
For G47C U61C, the self-cleavage stood at 0.87.
For G47A A52U the value was 1.01; for G47A A52C, 0.993; for U46A U53G, 0.931.
For the variant U46A U53C, the self-cleavage stood at 0.971.
As for U46C A52U, the self-cleavage turned out to be 0.974.
Take G47C A60G: the self-cleavage is 1.01.
The figure for G47C A60C is 0.366; for G48A U69G it is 1.07.
With G47U C63A, the self-cleavage stood at 0.944.
For G47U C63G, the self-cleavage was determined as 0.905.
For G47U C63U the value was 1.01; for U46G A59C, 0.828.
For G47A G68C the value was 1.
On to G47C C63G, for which the self-cleavage was 0.891.
The figure for G47C C63A is 0.944; for U46A U69G it is 1.03.
For G47A A59G the value was 0.988; for G47A A59C, 0.769; for U46G C63G, 0.825.
Take G48U A60U: the self-cleavage turned out to be 0.561.
With G48C C66U, the self-cleavage was 0.998.
The figure for G47A C57G is 0.303; for U46C A51C it is 0.99; for G47U U64C it is 0.943.
The figure for G47U U64A is 0.904; for U46A U62A it is 0.937.
With G47U G56U, the self-cleavage was found to be 0.983.
The figure for G48C C54A is 0.921.
Take G48C C54G: the self-cleavage came to 0.919.
In the case of G47U G68A, the self-cleavage came to 0.991.
For the variant G47U G68C, the self-cleavage worked out at 1.01.
For the variant G47U G68U, the self-cleavage is 1.01.
Turning to G47A A60C, the self-cleavage worked out at 0.397.
With G47A A60G, the self-cleavage stood at 0.944.
Consider G48U A59G, for which the self-cleavage stood at 0.993.
As for G47A G65A, the self-cleavage amounted to 0.936.
For U46G G56A the value was 0.941; for G48A U55A, 0.99; for G47A G56C, 0.918.
On to G47U U62A, for which the self-cleavage was 0.983.
With G47U U49A, the self-cleavage came to 1.01.
In the case of G47U U49C, the self-cleavage was 0.991.
For G48C U61A, the self-cleavage stood at 0.962.
Consider G47C G48U, for which the self-cleavage was 0.995.
On to G47C G48C, for which the self-cleavage was found to be 1.05.
As to U46G G50C, the self-cleavage worked out at 0.941.
On to G47C U55G, for which the self-cleavage turned out to be 0.931.
As for G47C U55A, the self-cleavage is 1.03.
For the variant U46G U49G, the self-cleavage is 0.972.
The figure for G47C U62C is 0.91; for G48A A60G it is 0.916.
Regarding U46C A59C, the self-cleavage worked out at 0.744.
As for G47C U69A, the self-cleavage was 0.99.
As to G47C U69G, the self-cleavage was found to be 1.06.
For U46G U67C the value was 0.979.
For G48C G56U the value was 0.962.
In the case of U46C C54U, the self-cleavage was determined as 0.975.
With U46C G56A, the self-cleavage was 0.933.
Turning to U46C G56C, the self-cleavage came to 0.785.
For G48C U62A, the self-cleavage was 0.994.
Turning to G48C U62C, the self-cleavage was 0.946.
Regarding U46C A60G, the self-cleavage stood at 0.88.
For U46C U61G the value was 0.856.
For U46C U61C the value was 0.788; for G47A G58U, 0.995.
Consider U46G C54U, for which the self-cleavage is 0.992.
Consider U46G C54A, for which the self-cleavage was 0.845.
For U46G A52C, the self-cleavage was found to be 0.942.
For U46G A52G the value was 0.992; for G47U U53A, 1.01; for G47A U49A, 1.01.
On to G47A U49C, for which the self-cleavage worked out at 0.975.
The figure for U46G G68A is 1.01.
With U46A U55G, the self-cleavage was determined as 0.916.
Regarding G48A G68A, the self-cleavage is 1.01.
With G48A G68U, the self-cleavage came out at 1.01.
U46C G58U: the self-cleavage amounted to 0.933.
U46C G58C: the self-cleavage was found to be 0.976.
On to G47U A52G, for which the self-cleavage stood at 0.987.
For G47U A52C, the self-cleavage stood at 1.02.
As for G47U A51G, the self-cleavage amounted to 0.998.
As for G48C U53A, the self-cleavage turned out to be 0.968.
For the variant G48C G68C, the self-cleavage worked out at 0.992.
Turning to G48C G68U, the self-cleavage stood at 0.985.
The figure for G48C A60G is 0.948; for G47A G50C it is 1.
As for G47A G50A, the self-cleavage was determined as 0.959.
U46C U49G: the self-cleavage turned out to be 1.01.
G48A U49A: the self-cleavage is 0.984.
G47A C66A: the self-cleavage worked out at 0.916.
For the variant G47A G48U, the self-cleavage stood at 1.03.
On to G47U U61C, for which the self-cleavage was 0.937.
The figure for U46C C57G is 0.361; for U46C C57U it is 0.279; for U46G U69A it is 1.01.
As for U46G U69G, the self-cleavage turned out to be 1.04.
Take U46C C66U: the self-cleavage was found to be 0.959.
On to G47U U67A, for which the self-cleavage came out at 0.99.
The figure for G47U U67G is 1.01; for G48A A51G it is 1.03; for G47U U55C it is 0.979.
The figure for U46G is 0.994.
For the variant U46C, the self-cleavage is 0.986.
As for U46C G50U, the self-cleavage amounted to 0.984.
Regarding G47U A59U, the self-cleavage is 0.833.
Turning to G47A U55A, the self-cleavage was 1.
For G48C U55C the value was 0.963; for G48C U55G, 0.864.
For the variant U46G G65U, the self-cleavage amounted to 0.913.
Turning to U46G G65A, the self-cleavage turned out to be 0.928.
As to U46C G47U, the self-cleavage is 1.02.
The figure for G48C C57U is 0.32; for G47C U67A it is 1.04.
